Source: patent US5756340A, “Insect control with multiple toxins” (The Regents of the University of California, priority 1995, dated 1998)

How the values were obtained:
Type in all cases: in vivo
[1] = tested on: Heliothis virescens larvae; experiment: Paralysis (PU50) of lepidopterous larvae after toxin injection; settings: single toxin injected; inability to move or turn when inverted, 24 hours after injection
Protocol: (§1) The activities of four different insect toxins towards two different insects and towards mice were determined (since one prefers to use insect toxins that have little or no effect on mammals). These were purified by established methods from the respective crude venoms. Their toxicity towards mice and larvae of blow fly and lepidoptera was determined according to the method of Reed and Muench (1938).
(§2) The PU50 values of the toxins to blow fly larvae were in accordance with previously published results (Zlotkin et al., Biochim, 53, 1075-1078 (1971); and Eitan et al., Biochem., 29, 5941-5947 (1990)). […]
each one of the toxins and the PU50 was determined as inability to
or turn when inverted on its back 24 hours after injection. […]

Swiss Webster mice = experiment: LD50 to mice, subcutaneous injection; settings: for toxicity towards mice / mammals (in words): Swiss Webster mice; for LD50 to Swiss Webster mice: single toxin, subcutaneous, 24 hours after injection
Protocol: as §1
The PU50 values of the toxins to blow fly larvae were in accordance with previously published results (Zlotkin et al., Biochim, 53, 1075-1078 (1971); and Eitan et al., Biochem., 29, 5941-5947 (1990)).
(§3) ^c Two replicates of eight mice were injected subcutaneously and the
to mice was determined 24 hours after injection.
as §3
LD50 to mice was determined 24 hours after injection.

[2] = tested on: Sarcophaga falculata larvae; experiment: Paralysis (PU50) of blow fly larvae after toxin injection; settings: single toxin injected; contraction paralysis immediately, or flaccid/delayed paralysis 5 minutes after injection
Protocol: as §1, §2
one of the toxins and the PU50 were determined. The PU50 of
excitatory toxins AaIT, LqhVI, and LqhIT3 was determined as a
contraction paralysis immediately after injection. The PU50 of the
depressant toxin LqhIT2 was determined as a flaccid paralysis 5
after injection. The PU50 of the α insect toxins LqhαIT

Row | Molecule | PU50 to Heliothis virescens larvae [1] | toxicity towards mice / mammals (in words) (Swiss Webster mice) | LD50 to Swiss Webster mice (Swiss Webster mice) | PU50 to Sarcophaga falculata larvae [2]
1 | LqhαIT: α insect toxin from yellow scorpion Leuirus quinquestriatus hebraeus | 2.5 μg/100 mg b.w. | higher toxicity | 8.0 μg/20 g b.w. | 0.0025 μg/100 mg b.w.
2 | LqhVI (protein) GVRDGYIAQPENCVYHCFPGSPGCDTLCKGDGASSGHCGFKEGHGLACWCNDLPDKVGIIVEGEKCH | 3.0 μg/100 mg b.w. | weak mammal toxicity | > 60 μg/20 g b.w. | 0.006 μg/100 mg b.w.
3 | LqhIV (protein) peptide: GVRDAYIADDKNCVYTCGANSYCNTECTKNGAESGYCQWFGKYGNACWCIKLPDKVPIRIPGKCR | 0.5 μg/100 mg b.w. | no or weak mammal toxicity | 12 μg/20 g b.w. | 0.1 μg/100 mg b.w.
4 | AaIT: excitatory insect-selective scorpion toxin from Androctonus australis (protein, UniProt P01497 19-88, looked up) Beta-insect excitatory toxin 1: KKNGYAVDSSGKAPECLLSNYCNNECTKVHYADKGYCCLLSCYCFGLNDDKKVLEISDTRKSYCDTTIIN | 2.5 μg/100 mg b.w. |  | > 60 μg/20 g b.w. | 0.0025 μg/100 mg b.w.
